Earlier results as cited in publication PMC11809415, “Structure of the F-tractin–F-actin complex” (The Journal of Cell Biology, 2025).
Where “and” joins values, the source holds several entries; their conditions need not be identical. Identical values can stand only once.

Target: F-actin (Oryctolagus cuniculus) (UniProt P68135)

Kd: 14.9 µM and 5.8 µM
Substance: Lifeact (from UniProt Q08641)
